Experimental data reported in PMC5090064, “Coordinated regulation of the ESCRT-III component CHMP4C by the chromosomal passenger complex and centralspindlin during cytokinesis” (Open Biology, 2016).

What was measured:
[1] = biological target: MKLP1 (UniProt Q02241); test: GFP-Trap pull-down, Flag western blot
[2] = biological target: T1, CPC mini-complex (Survivin full-length, Borealin full-length and INCENP 1–57) (UniProt Q53HL2 1-280; O15392 1-142; Q9NQS7 1-57); test: atomic force microscopy; purified proteins on mica surfaces without lipid bilayers, imaged under fluid at room temperature; conditions: both partners purified
T1 construct: Borealin, full-length, TEV-cleavable His-tagged, pETM vector; Survivin, full-length, 3C-cleavable GFP-tagged, pRSET vector; INCENP residues 1–57 (methods; the results say the first 58 amino acids), untagged, pMCNcs vector; Results call the INCENP piece INCENP 1–58, methods 1–57; also called mini-CPC; copies: + +
T1 sequence (Q53HL2 whole entry, chain 1 of 3, the tested form may be a part): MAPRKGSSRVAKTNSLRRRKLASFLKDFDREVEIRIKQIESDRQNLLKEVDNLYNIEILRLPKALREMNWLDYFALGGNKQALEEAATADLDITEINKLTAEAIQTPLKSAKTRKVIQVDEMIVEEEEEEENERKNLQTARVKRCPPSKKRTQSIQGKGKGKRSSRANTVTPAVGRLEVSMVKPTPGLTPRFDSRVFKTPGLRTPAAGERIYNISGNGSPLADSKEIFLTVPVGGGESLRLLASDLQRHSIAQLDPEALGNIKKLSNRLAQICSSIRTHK
T1 sequence (O15392 whole entry, chain 2 of 3, the tested form may be a part): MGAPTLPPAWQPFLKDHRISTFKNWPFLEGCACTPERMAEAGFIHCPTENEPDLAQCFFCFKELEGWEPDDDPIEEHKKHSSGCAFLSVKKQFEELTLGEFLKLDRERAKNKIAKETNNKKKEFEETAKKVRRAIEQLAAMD
T1 sequence (Q9NQS7 1-57, chain 3 of 3): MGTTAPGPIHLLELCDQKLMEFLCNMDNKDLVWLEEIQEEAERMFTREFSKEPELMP

## CHMP4C (from UniProt Q96CF2) StripleA (S210A, S214A, S215A)
[1]; reference: S210A, sites S214,S215
  binding against the reference: stronger
[1]; reference: wild type, sites S210,S214,S215
  binding against the reference: stronger

B1: CHMP4C (purified recombinant, full-length) (natural protein, human, UniProt Q96CF2 1-233, looked up)
chain: MSKLGKFFKGGGSSKSRAAPSPQEALVRLRETEEMLGKKQEYLENRIQREIALAKKHGTQNKRAALQALKRKKRFEKQLTQIDGTLSTIEFQREALENSHTNTEVLRNMGFAAKAMKSVHENMDLNKIDDLMQEITEQQDIAQEISEAFSQRVGFGDDFDEDELMAELEELEQEELNKKMTNIRLPNVPSSSLPAQPNRKPGMSSTARRSRAASSQRAEEEDDDIKQLAAWAT
notes: CHMP4C, human, full-length ORF cloned into pET-His6-msfGFP as a TEV-cleavable His-tagged protein; also called His6-GFP::CHMP4C; purified CHMP4C; source: E. coli BL21 Gold, purified (Ni-NTA, TEV cleavage, Superdex 200); not shown: His6, N-terminal, cleaved
[2]
  binding result: binds
